Results taken from patent US10294487B2, “Methods and compositions involving ALS variants with native substrate preference” (E I DU PONT DE NEMOURS AND COMPANY, priority 2012, dated 2019).

What was measured:
soybean plants = assay: Chlorsulfuron spray test of transgenic T1 soybean plants; type: in vivo; details: chlorsulfuron 3 g ai/ha foliar; homozygous T1 plants; 8 days after treatment; 0=no effect, 100=dead plant
Description: T1 plants, each having an ALS variant transgene, were grown to the V1 to V2 growth stage and then sprayed with commercial chlorsulfuron formulation at a rate of 3 g ai/ha. All chlorsulfuron treatments were applied foliarly with 0.25% nonionic surfactant in a spray volume of 374 L/ha. Individual plants were compared to untreated plants of similar genetic background, evaluated for herbicide response at eight days after treatment and assigned a visual response score from 0 to 100% injury (0=no effect to 100=dead plant at day 8).
Results in Table 8 list the lowest injury among plants of a single event for constructs containing the listed expression cassette. The amino acid substituted ALS variants provided more protection than the overexpression of the native ALS gene. Seed was produced from a number of T1 plants and advanced to more extensive herbicide testing in the T2 generation.

ALS [1] = details: cited from earlier work; for Resistance pattern, I50 fold increase: IM: imidazolinone(s); for Resistance pattern, I50 fold increase: SU: sulfonylurea(s)
ALS [2] = details: pyruvate reaction; cited from earlier work

Molecule | Lowest % injury (soybean plants) [%] | Resistance pattern, I50 fold increase: IM (ALS [1]) | Resistance pattern, I50 fold increase: SU (ALS [1]) | Kinetic parameters: Km (ALS [2]) | Kinetic parameters: kcat (ALS [2]) | Resistance pattern, I50 fold increase: IP (ALS [1]; IP (abbreviation not defined)) [fold] | Resistance pattern, I50 fold increase: IEt (ALS [1]; imazethapyr) [fold]
SAMS: GM-ALS_P178S_D357E: SAMS promoter driving ALS variant SEQ ID NO 17 in transgenic soybean (protein) MAATASRTTRFSSSSSHPTFPKRITRSTLPLSHQTLTKPNHALKIKCSISKPPTAAPFTKEAPTTEPFVSRFASGEPRKGADILVEALERQGVTTVFAYPGGASMEIHQALTRSAAIRNVLPRHEQGGVFAAEGYARSSGLPGVCIATSGPGATNLVSGLADALMDSVPVVAITGQVSRRMIGTDAFQETPIVEVSRSITKHNYLILDVDDIPRVVAEAFFVATSGRPGPVLIDIPKDVQQQLAVPNWDEPVNLPGYLARLPRPPAEAQLEHIVRLIMEAQKPVLYVGGGSLNSSAELRRFVELTGIPVASTLMGLGTFPIGDEYSLQMLGMHGTVYANYAVDNSDLLLAFGVRFDERVTGKLEAFASRAKIVHIDIDSAEIGKNKQAHVSVCADLKLALKGINMILEEKGVEGKFDLGGWREEINVQKHKFPLGYKTFQDAISPQHAIEVLDELTNGDAIVSTGVGQHQMWAAQFYKYKRPRQWLTSGGLGAMGFGLPAAIGAAVANPGAVVVDIDGDGSFIMNVQELATIRVENLPVKILLLNNQHLGMVVQWEDRFYKSNRAHTYLGDPSSESEIFPNMLKFADACGIPAARVTKKEELRAAIQRMLDTPGPYLLDVIVPHQEHVLPMIPSNGSFKDVITEGDGRTRY | 45 | – | – | – | – | – | –
A200V: Site-directed mutation in S. cerevisiae ALS; position A205, 186 (protein, UniProt P07342 91-687, looked up, variant A200V) Acetolactate synthase …: GLTGGQIFNEMMSRQNVDTVFGYPGGAILPVYDAIHNSDKFNFVLPKHEQGAGHMAEGYARASGKPGVVLVTSGPGATNVVTPMADAFADGIPMVVFTGQVPTSAIGTDVFQEADVVGISRSCTKWNVMVKSVEELPLRINEAFEIATSGRPGPVLVDLPKDVTAAILRNPIPTKTTLPSNALNQLTSRAQDEFVMQSINKAADLINLAKKPVLYVGAGILNHADGPRLLKELSDRAQIPVTTTLQGLGSFDQEDPKSLDMLGMHGCATANLAVQNADLIIAVGARFDDRVTGNISKFAPEARRAAAEGRGGIIHFEVSPKNINKVVQTQIAVEGDATTNLGKMMSKIFPVKERSEWFAQINKWKKEYPYAYMEETPGSKIKPQTVIKKLSKVANDTGRHVIVTTGVGQHQMWAAQHWTWRNPHTFITSGGLGTMGYGLPAAIGAQVAKPESLVIDIDGDASFNMTLTELSSAVQAGTPVKILILNNEEQGMVTQWQSLFYEHRYSHTHQLNPDFIKLAEAMGLKGLRVKKQEELDAKLKEFVSTKGPVLLEVEVDKKVPVLPMVAGGSGLDEFINFDPEVERQQTELRHKRTGGKH | – | IMs, 10-100 fold | SUs, 300-700 fold | 100 % wt | 20 % wt | – | –
K251T: Site-directed mutation in S. cerevisiae ALS; position K256, 237 (protein, UniProt P07342 91-687, looked up, variant K251T) Acetolactate synthase …: GLTGGQIFNEMMSRQNVDTVFGYPGGAILPVYDAIHNSDKFNFVLPKHEQGAGHMAEGYARASGKPGVVLVTSGPGATNVVTPMADAFADGIPMVVFTGQVPTSAIGTDAFQEADVVGISRSCTKWNVMVKSVEELPLRINEAFEIATSGRPGPVLVDLPTDVTAAILRNPIPTKTTLPSNALNQLTSRAQDEFVMQSINKAADLINLAKKPVLYVGAGILNHADGPRLLKELSDRAQIPVTTTLQGLGSFDQEDPKSLDMLGMHGCATANLAVQNADLIIAVGARFDDRVTGNISKFAPEARRAAAEGRGGIIHFEVSPKNINKVVQTQIAVEGDATTNLGKMMSKIFPVKERSEWFAQINKWKKEYPYAYMEETPGSKIKPQTVIKKLSKVANDTGRHVIVTTGVGQHQMWAAQHWTWRNPHTFITSGGLGTMGYGLPAAIGAQVAKPESLVIDIDGDASFNMTLTELSSAVQAGTPVKILILNNEEQGMVTQWQSLFYEHRYSHTHQLNPDFIKLAEAMGLKGLRVKKQEELDAKLKEFVSTKGPVLLEVEVDKKVPVLPMVAGGSGLDEFINFDPEVERQQTELRHKRTGGKH | – | IMs, 10-150 fold | SU, 10-100 fold | 65 % wt | 1 % wt | – | –
M354V: Site-directed mutation in S. cerevisiae ALS; position M351, 332 (protein, UniProt P07342 91-687, looked up, variant M354V) Acetolactate synthase …: GLTGGQIFNEMMSRQNVDTVFGYPGGAILPVYDAIHNSDKFNFVLPKHEQGAGHMAEGYARASGKPGVVLVTSGPGATNVVTPMADAFADGIPMVVFTGQVPTSAIGTDAFQEADVVGISRSCTKWNVMVKSVEELPLRINEAFEIATSGRPGPVLVDLPKDVTAAILRNPIPTKTTLPSNALNQLTSRAQDEFVMQSINKAADLINLAKKPVLYVGAGILNHADGPRLLKELSDRAQIPVTTTLQGLGSFDQEDPKSLDMLGVHGCATANLAVQNADLIIAVGARFDDRVTGNISKFAPEARRAAAEGRGGIIHFEVSPKNINKVVQTQIAVEGDATTNLGKMMSKIFPVKERSEWFAQINKWKKEYPYAYMEETPGSKIKPQTVIKKLSKVANDTGRHVIVTTGVGQHQMWAAQHWTWRNPHTFITSGGLGTMGYGLPAAIGAQVAKPESLVIDIDGDASFNMTLTELSSAVQAGTPVKILILNNEEQGMVTQWQSLFYEHRYSHTHQLNPDFIKLAEAMGLKGLRVKKQEELDAKLKEFVSTKGPVLLEVEVDKKVPVLPMVAGGSGLDEFINFDPEVERQQTELRHKRTGGKH | – | – | SUs, 5-85 fold | Km, 60 % wt | kcat, 50 % wt | 10 | 90
D379N: Site-directed mutation in S. cerevisiae ALS; position D376, 357 (protein, UniProt P07342 91-687, looked up, variant D379N) Acetolactate synthase …: GLTGGQIFNEMMSRQNVDTVFGYPGGAILPVYDAIHNSDKFNFVLPKHEQGAGHMAEGYARASGKPGVVLVTSGPGATNVVTPMADAFADGIPMVVFTGQVPTSAIGTDAFQEADVVGISRSCTKWNVMVKSVEELPLRINEAFEIATSGRPGPVLVDLPKDVTAAILRNPIPTKTTLPSNALNQLTSRAQDEFVMQSINKAADLINLAKKPVLYVGAGILNHADGPRLLKELSDRAQIPVTTTLQGLGSFDQEDPKSLDMLGMHGCATANLAVQNADLIIAVGARFDNRVTGNISKFAPEARRAAAEGRGGIIHFEVSPKNINKVVQTQIAVEGDATTNLGKMMSKIFPVKERSEWFAQINKWKKEYPYAYMEETPGSKIKPQTVIKKLSKVANDTGRHVIVTTGVGQHQMWAAQHWTWRNPHTFITSGGLGTMGYGLPAAIGAQVAKPESLVIDIDGDASFNMTLTELSSAVQAGTPVKILILNNEEQGMVTQWQSLFYEHRYSHTHQLNPDFIKLAEAMGLKGLRVKKQEELDAKLKEFVSTKGPVLLEVEVDKKVPVLPMVAGGSGLDEFINFDPEVERQQTELRHKRTGGKH | – | hypersensitivity | SUs, 200-900 fold | Km, 133 % wt | kcat, 140 % wt | – | –
W586L: Site-directed mutation in S. cerevisiae ALS; position W574, 555 (protein, UniProt P07342 91-687, looked up, variant W586L) Acetolactate synthase …: GLTGGQIFNEMMSRQNVDTVFGYPGGAILPVYDAIHNSDKFNFVLPKHEQGAGHMAEGYARASGKPGVVLVTSGPGATNVVTPMADAFADGIPMVVFTGQVPTSAIGTDAFQEADVVGISRSCTKWNVMVKSVEELPLRINEAFEIATSGRPGPVLVDLPKDVTAAILRNPIPTKTTLPSNALNQLTSRAQDEFVMQSINKAADLINLAKKPVLYVGAGILNHADGPRLLKELSDRAQIPVTTTLQGLGSFDQEDPKSLDMLGMHGCATANLAVQNADLIIAVGARFDDRVTGNISKFAPEARRAAAEGRGGIIHFEVSPKNINKVVQTQIAVEGDATTNLGKMMSKIFPVKERSEWFAQINKWKKEYPYAYMEETPGSKIKPQTVIKKLSKVANDTGRHVIVTTGVGQHQMWAAQHWTWRNPHTFITSGGLGTMGYGLPAAIGAQVAKPESLVIDIDGDASFNMTLTELSSAVQAGTPVKILILNNEEQGMVTQLQSLFYEHRYSHTHQLNPDFIKLAEAMGLKGLRVKKQEELDAKLKEFVSTKGPVLLEVEVDKKVPVLPMVAGGSGLDEFINFDPEVERQQTELRHKRTGGKH | – | IMs, 8-70 fold | SUs, 1000-10000 fold | Km, 80 % wt | kcat, 450 % wt | – | –
G116S: Site-directed mutation in Saccharomyces cerevisiae ALS; position G121 A. thal., 102 G. max (protein, UniProt P07342 91-687, looked up, variant G116S) Acetolactate synthase …: GLTGGQIFNEMMSRQNVDTVFGYPGSAILPVYDAIHNSDKFNFVLPKHEQGAGHMAEGYARASGKPGVVLVTSGPGATNVVTPMADAFADGIPMVVFTGQVPTSAIGTDAFQEADVVGISRSCTKWNVMVKSVEELPLRINEAFEIATSGRPGPVLVDLPKDVTAAILRNPIPTKTTLPSNALNQLTSRAQDEFVMQSINKAADLINLAKKPVLYVGAGILNHADGPRLLKELSDRAQIPVTTTLQGLGSFDQEDPKSLDMLGMHGCATANLAVQNADLIIAVGARFDDRVTGNISKFAPEARRAAAEGRGGIIHFEVSPKNINKVVQTQIAVEGDATTNLGKMMSKIFPVKERSEWFAQINKWKKEYPYAYMEETPGSKIKPQTVIKKLSKVANDTGRHVIVTTGVGQHQMWAAQHWTWRNPHTFITSGGLGTMGYGLPAAIGAQVAKPESLVIDIDGDASFNMTLTELSSAVQAGTPVKILILNNEEQGMVTQWQSLFYEHRYSHTHQLNPDFIKLAEAMGLKGLRVKKQEELDAKLKEFVSTKGPVLLEVEVDKKVPVLPMVAGGSGLDEFINFDPEVERQQTELRHKRTGGKH | – | IMs 15-300 fold | SUs, 1000-10000 fold | Km, 20 % wt | kcat, 75 % wt | – | –
